Target: T1, BMP5 (Homo sapiens, UniProt P22003)
T1 sequence (P22003 317-454): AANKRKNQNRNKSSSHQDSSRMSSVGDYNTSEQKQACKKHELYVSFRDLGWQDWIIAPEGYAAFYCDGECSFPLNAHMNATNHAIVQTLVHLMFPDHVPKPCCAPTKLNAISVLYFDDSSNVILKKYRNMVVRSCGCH
Assay: BMP activity luciferase reporter assay (BRE-luciferase, ID1 promoter) in C2C12 cells
Type: cell-based, mouse
Design: purchased R&D Systems 615-BMC-020
Conditions: 200 ng/ml hBMP5, 16 h; VHH, Noggin, Gremlin 500 ng/ml; LDN 0.5 μM; DMH1 0.2 μM
Procedure: One of the most studied BMP target genes is the Inhibitor of Differentiation 1 (ID1). This is an immediate early gene that is activated by binding of the phosphorylated SMADs to its promoter region (López-Rovira et al., 2002). Thus, we employed the BMP-responsive C2C12 cells, which are stably transfected with the BRE-luciferase vector containing the BMP-Responsive-Element (the mouse ID1 promoter) cloned into the pGL3 luciferase vector (Zilberberg 2007). […] C2C12 cells were treated with the different BMPs with or without our VHHs or human Noggin at a concentration of 5 μg/ml. Luciferase activity was measured after 16 hours incubation. Most of the transcriptional data is in concordance with the results obtained with the phosphorylation of SMAD1/5/8.
C2C12 cells were plated in 96-well plates at 5×10^3 cells/well and cells were allowed to attach overnight. 100 μl of DMEM with 0.1% BSA were added in each well. VHH antibodies and human Fc-Noggin at the indicated concentrations were added at the same time. Wells with unstimulated cells were added as controls. […] Luciferase activity was measured by adding 100 μl of luciferase substrate solution from the Bright-Glo™ Luciferase Assay System (Promega Benelux, Leiden, The Netherlands). After 3 minutes of incubation, luciferase activity was measured with Synergy HT Multi-Mode Microplate Reader (Biotek, Winooski, Vt., United States). […]

B1: hNoggin (protein)
chain: QHYLHIRPAPSDNLPLVDLIEHPDPIFDPKEKDLNETLLRSLLGGHYDPGFMATSPPEDRPGGGGGAAGGAEDLAELDQLLRQRPSGAMPSEIKGLEFSEGLAQGKKQRLSKKLRRKLQMWLWSQTFCPVLYAWNDLGSRFWPRYVKVGSCFSKRSCSVPEGMVCKPSKSVHLTVLRWRCQRRGGQRCGWIPIQYPIISECKCSC
  inhibition of BMP5 signals, comparison of inhibitors: greatly inhibit

From patent publication US10280218B2, “Antibodies binding to BMP4, and uses thereof” (ACADEMISCH MEDISCH CENTRUM, priority 2014, dated 2019)
